Key:
[1] = BTK FAC plasma stability assay, rat plasma; type: in vitro ADME; settings: for Plasma stability (h) rat: incubation to 24 h
Experimental: (§1) Plasma stability was conducted in Dulbecco's PBS buffer, mouse plasma, rat plasma or human plasma frozen with K3-EDTA from BiolVT). Thawed plasma was centrifuged prior to warming for 5 minutes at 37° C. Working solutions were prepared from 10 mM DMSO solution to 500 µM in acetonitrile:water (1:1); 2 µL of working solution was added to 198 µL blank plasma or PBS and mixed manually. 4×45 µL of spiked matrix was aliquoted into glass incubation plates (96-well DW glass microplate) and sealed with blue silicon/PTFE seal; then incubated on a Thermo shaker (38° C. 300 RPM). Samples were prepared at 0, 2, 6 and 24 h timepoints, by protein precipitation with chilled acetonitrile containing internal standard Glyburide (0.2 µM). Precipitated samples were shaken for 10 minutes and stored at 4° C. until completion of the study. Following precipitation of the terminal sample, samples were frozen at −80° C. for 1 hour. Samples were then thawed prior to centrifugation (20 minutes, 4500 RPM at 4° C.). 50 µL of supernatant of each sample was transferred to 384 well analysis plate containing 30 µL of water. Semi quantitative analysis (analyte: internal standard peak area ratio) was performed by LC-MS/MS using a Sciex QTrap 5500.

[2] = BTK FAC plasma stability assay, dog plasma; type: in vitro ADME
[3] = BTK FAC plasma stability assay, cyno plasma; type: in vitro ADME, cynomolgus monkey
[4] = BTK FAC plasma stability assay, PBS buffer arm; type: physicochemical; settings: for Plasma stability (h) PBS: incubation to 24 h
Experimental: as §1

[5] = BTK FAC plasma stability assay, mouse plasma; type: in vitro ADME; settings: for Plasma stability (h) mouse: incubation to 24 h
Experimental: as §1

| SMILES | % Release of degrader after 24 h rat [1] [%] | Plasma stability (h) rat [1] [h] | Plasma stability (h) dog [2] [h] | % Release of degrader after 24 h dog [2] [%] | Plasma stability (h) cyno [3] [h] | % Release of degrader after 24 h cyno [3] [%] | % Release of degrader after 24 h PBS [4] [%] | Plasma stability (h) PBS [4] [h] | % Release of degrader after 24 h mouse [5] [%] | Plasma stability (h) mouse [5] [h] |
| --- | --- | --- | --- | --- | --- | --- | --- | --- | --- | --- |
| CCCCCCCCCCCN(C(=O)CCCCCCCCCC(=O)O)C(CCC(=O)NCCOCCOCCOCCOCCOCCOCCOCCOCCOCCOCCOCCOCCC(=O)NCc1ccc(C(=O)OC(C)(C)c2ccc(C(=O)Nc3cc(F)cc(-c4ncnc5[nH]c(-c6ccc(CCN7CCC8(CC7)CCN(C(=O)c7ccc(OC)c(N9CCC(=O)NC9=O)c7)CC8)cc6)cc45)c3C)c(F)c2)cc1)C(=O)O (centres unmarked) [Example A14, 46-Carboxy-1-(4-(((2-(4-((3-(6-(4-(2-(9-(3-(2,4-dioxotetrahydropyrimidin-1(2H)-yl)-4-methoxybenzoyl)-3,9-diazaspiro[5.5]undecan-3-yl)ethyl)phenyl)-7H-pyrrolo[2,3-d]pyrimidin-4-yl)-5-fluoro-2-methylphenyl)carbamoyl)-3-fluorophenyl)propan-2-yl)oxy)carbonyl)phenyl)-3,43,48-trioxo-47-undecyl-6,9,12,15,18,21,24,27,30,33,36,39-dodecaoxa-2,42,47-triazaoctapentacontan-58-oic acid] | 0.3 | >48 | >48 | 0.1 | >48 | 0.2 | 0.2 | >48 | 9.5 | >48 |
| CCCCCCCCCCCN(C(=O)CCCCCCCCCC(=O)O)C(CCC(=O)NCCOCCOCCOCCOCCOCCOCCOCCOCCOCCOCCOCCOCCC(=O)N1CCN(CC(=O)OC(C)(C)c2ccc(C(=O)Nc3cc(F)cc(-c4ncnc5[nH]c(-c6ccc(CCN7CCC8(CC7)CCN(C(=O)c7ccc(OC)c(N9CCC(=O)NC9=O)c7)CC8)cc6)cc45)c3C)c(F)c2)CC1)C(=O)O (centres unmarked) [Example A22, 44-Carboxy-1-(4-(2-((2-(4-((3-(6-(4-(2-(9-(3-(2,4-dioxotetrahydropyrimidin-1(2H)-yl)-4-methoxybenzoyl)-3,9-diazaspiro[5.5]undecan-3-yl)ethyl)phenyl)-7H-pyrrolo[2,3-d]pyrimidin-4-yl)-5-fluoro-2-methylphenyl)carbamoyl)-3-fluorophenyl)propan-2-yl)oxy)-2-oxoethyl)piperazin-1-yl)-1,41,46-trioxo-45-undecyl-4,7,10,13,16,19,22,25,28,31,34,37-dodecaoxa-40,45-diazahexapentacontan-56-oic acid] | 1.4 | >48 | >48 | 1.6 | >48 | 1.2 | 1.3 | >48 | 2.3 | >48 |
| CCCCCCCCCCCN(C(=O)CCCCCCCCCC(=O)O)C(CCC(=O)NCCOCCOCCOCCOCCOCCOCCOCCOCCOCCOCCOCCOCCC(=O)NCc1ccc(C(=O)OC(C)(C)c2ccc(C(=O)Nc3cc(F)cc(-c4ncnc5[nH]c(-c6ccc(CCN7CCC8(CC7)CCN(C(=O)c7ccc(OC)c(N9CCC(=O)NC9=O)c7)CC8)cc6)cc45)c3C)c(F)c2)cn1)C(=O)O (centres unmarked) [Example A25, 46-Carboxy-1-(5-(((2-(4-((3-(6-(4-(2-(9-(3-(2,4-dioxotetrahydropyrimidin-1(2H)-yl)-4-methoxybenzoyl)-3,9-diazaspiro[5.5]undecan-3-yl)ethyl)phenyl)-7H-pyrrolo[2,3-d]pyrimidin-4-yl)-5-fluoro-2-methylphenyl)carbamoyl)-3-fluorophenyl)propan-2-yl)oxy)carbonyl)pyridin-2-yl)-3,43,48-trioxo-47-undecyl-6,9,12,15,18,21,24,27,30,33,36,39-dodecaoxa-2,42,47-triazaoctapentacontan-58-oic acid] | 1.5 | 35.7 | >48 | 1.1 | >48 | 1.1 | 2.2 | >48 | 20.9 | 17.8 |
| CCCCCCCCCCCN(C(=O)CCCCCCCCCC(=O)O)[C@@H](CCC(=O)NCCOCCOCCOCCOCCOCCOCCOCCOCCOCCOCCOCCOCCC(=O)NCCCC(=O)OC(C)(C)c1ccc(C(=O)Nc2cc(F)cc(-c3ncnc4[nH]c(-c5ccc(CCN6CCC7(CC6)CCN(C(=O)c6ccc(OC)c(N8CCC(=O)NC8=O)c6)CC7)cc5)cc34)c2C)c(F)c1)C(=O)O [Example A27, (S)-52-Carboxy-2-(4-((3-(6-(4-(2-(9-(3-(2,4-dioxotetrahydropyrimidin-1(2H)-yl)-4-methoxybenzoyl)-3,9-diazaspiro[5.5]undecan-3-yl)ethyl)phenyl)-7H-pyrrolo[2,3-d]pyrimidin-4-yl)-5-fluoro-2-methylphenyl)carbamoyl)-3-fluorophenyl)-2-methyl-4,9,49,54-tetraoxo-53-undecyl-3,12,15,18,21,24,27,30,33,36,39,42,45-tridecaoxa-8,48,53-triazatetrahexacontan-64-oic acid] | 2 |  | >48 | 0.5 | 26.6 | 0.4 | 0.3 | >48 | 13.7 | 28.6 |
| COc1ccc(C(=O)N2CCC3(CCN(CCc4ccc(-c5cc6c(-c7cc(F)cc(NC(=O)c8ccc(C(C)(C)OC(=O)CNC(=O)CCOCCOCCOCCOCCOCCOCCOCCOCCOCCOCCOCCOCCNC(C)=O)cc8F)c7C)ncnc6[nH]5)cc4)CC3)CC2)cc1N1CCC(=O)NC1=O [Example A33, 2-(4-((3-(6-(4-(2-(9-(3-(2,4-Dioxotetrahydropyrimidin-1(2H)-yl)-4-methoxybenzoyl)-3,9-diazaspiro[5.5]undecan-3-yl)ethyl)phenyl)-7H-pyrrolo[2,3-d]pyrimidin-4-yl)-5-fluoro-2-methylphenyl)carbamoyl)-3-fluorophenyl)propan-2-yl (2-oxo-6,9,12,15,18,21,24,27,30,33,36,39-dodecaoxa-3-azadotetracontan-42-oyl)glycinate] | 16.7 | 2.3 | 32 | 10.4 | 45.7 | 8.1 | 4.8 | >48 | 27.7 | 5.1 |
| COCCOCCOCCOCCOCCOCCOCCOCCOCCOCCOCCOCCC(=O)NCC(=O)OC(C)(C)c1ccc(C(=O)Nc2cc(F)cc(-c3ncnc4[nH]c(-c5ccc(CCN6CCC7(CC6)CCN(C(=O)c6ccc(OC)c(N8CCC(=O)NC8=O)c6)CC7)cc5)cc34)c2C)c(F)c1 [Example A34, 2-(4-((3-(6-(4-(2-(9-(3-(2,4-Dioxotetrahydropyrimidin-1(2H)-yl)-4-methoxybenzoyl)-3,9-diazaspiro[5.5]undecan-3-yl)ethyl)phenyl)-7H-pyrrolo[2,3-d]pyrimidin-4-yl)-5-fluoro-2-methylphenyl)carbamoyl)-3-fluorophenyl)propan-2-yl (2,5,8,11,14,17,20,23,26,29,32,35-dodecaoxaoctatriacontan-38-oyl)glycinate] | 42.2 | 5.3 | >48 | 5.3 | 30.6 | 13.9 | 5.2 | >48 | 26.2 | 6.8 |

From patent US20240216513A1, “FATTY ACID-BIFUNCTIONAL DEGRADER CONJUGATES AND THEIR METHODS OF USE” (Novartis AG, priority 2021, published 2024)
